Test results reported in US20250215048A1 (MACFARLANE BURNET INSTITUTE FOR MEDICAL RESEARCH AND PUBLIC …, published 2025).

T1: dimeric maltose binding protein (MBP)-CD81-LEL113-201 (UniProt P60033 113-201)
T1 construct: range 113-201; Coated on ELISA plates; The order of the parts follows the printed name, and no linker is stated; also called recombinant CD81
T1 sequence: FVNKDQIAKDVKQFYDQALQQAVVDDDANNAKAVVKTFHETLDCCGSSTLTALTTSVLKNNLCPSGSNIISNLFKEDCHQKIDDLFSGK


How the values were obtained:
[1] = molecular target: Con1 HMW1 Δ123 (hepatitis C virus genotype 1b, strain Con1) (UniProt Q9WMX2); assay: direct ELISA on coated antigen; ratio of curve mid-points
[2] = molecular target: H77c HMW1 Δ123 (hepatitis C virus genotype 1a, strain H77c) (UniProt P27958); assay: as above
[3] = molecular target: S52 HMW1 Δ123 (hepatitis C virus genotype 3a, strain S52); assay: as above
[4] = molecular target: T1, dimeric maltose binding protein …; assay: sandwich ELISA, MBP-CD81-LEL coated, anti-HIS detection

Row | Molecule | binding to HMW1 Δ123 relative to H77c HMW1 Δ123 [1] [fold] | binding to HMW1 Δ123 relative to monomeric Δ123 of corresponding strain [1] [fold] | binding to HMW1 Δ123 relative to monomeric Δ123 of corresponding strain [2] [fold] | binding to HMW1 Δ123 relative to H77c HMW1 Δ123 [3] [fold] | binding to HMW1 Δ123 relative to monomeric Δ123 of corresponding strain [3] [fold] | binding result [4]
1 | AR3B (antibody) | < 6.58 | 0.17 | < 0.37 | < 1.68 | < 0.09 | 
2 | AR3C (antibody) | 3.92 | 0.13 | 0.18 | 6.17 | 0.54 | 
3 | AR3D (antibody) | 4.73 | 0.08 | < 0.17 |  |  | 
4 | CBH-4B (antibody) | < 1 | < 0.24 | < 0.27 | < 1 | < 0.62 | 
5 | CBH-4D (antibody) | < 1.23 | < 0.11 | < 0.27 | < 1.68 | < 0.07 | 
6 | HC-11 (antibody) | 6.97 | 0.28 | 0.21 | 1 | < 0.2 | 
7 | HCV1 (antibody) | 2.05 | 1.46 | 1.21 | 2.08 | 0.92 | 
8 | Con1 Δ123 glycoproteins, unfractionated (cell culture supernatant and TALON eluate) (other, Mixture of monomers, dimers and HMW forms as secreted by FS293F cells) GTYGSSGQLVNTNGSWHINRTALNCNDSLNTGFLAALFYVHKFNSSGCPERMASCGSSGCWHYAPRPCGIVPAAQVCGPVYCFTPSPVVVGTTDRFGVPTYSWGENETDVLLLNNTRPPQGNWFGCTWMNSTGFTKTCGGPPCGSSGCPTDCFRKHPEATYTKCGSGPWLTPRCLVHYPYRLWHYPCTVNFTIFKVRMYVGGVEHRLEAACNWTRGERCNLEDRDRSEHHHHHH |  |  |  |  |  | binds
9 | S52 Δ123 glycoproteins, unfractionated (cell culture supernatant and TALON eluate) (other, Mixture of monomers, dimers and HMW forms as secreted by FS293F cells) ETHQKLQLVNTNGSWHINSTALNCNESINTGFIAGLFYYHKFNSTGCPQRLSSCGSSGCWHYAPRPCSVVPASSVCGPVYCFTPSPVVVGTTDIKGKPTYNWGENETDVFLLESLRPPSGRWFGCAWMNSTGFLKTCGAPPCGSSGCPTDCFRKHPEATYSRCGAGPWLTPRCMVDYPYRLWHYPCTVNFTLFKVRMFVGGFEHRFTAACNWTRGERCNIEDRDRSEHHHHHH |  |  |  |  |  | binds
